Laboratory results: publication doi:10.1101/262477 (bioRxiv, 2018)
Like-named read-outs stand apart in the source and are kept apart here.

Tests used:
[1] = molecular target: T1, NFS1-ISD11 complex (SD), purified, His tag removed (human, UniProt Q9Y697 56-457; Q9HD34 1-91); experiment: BLI
[2] = molecular target: T1, NFS1-ISD11 complex (SD), purified, His …; experiment: BLI; remark: listed apart in the source

T1 sequence (Q9Y697 56-457, chain 1 of 2): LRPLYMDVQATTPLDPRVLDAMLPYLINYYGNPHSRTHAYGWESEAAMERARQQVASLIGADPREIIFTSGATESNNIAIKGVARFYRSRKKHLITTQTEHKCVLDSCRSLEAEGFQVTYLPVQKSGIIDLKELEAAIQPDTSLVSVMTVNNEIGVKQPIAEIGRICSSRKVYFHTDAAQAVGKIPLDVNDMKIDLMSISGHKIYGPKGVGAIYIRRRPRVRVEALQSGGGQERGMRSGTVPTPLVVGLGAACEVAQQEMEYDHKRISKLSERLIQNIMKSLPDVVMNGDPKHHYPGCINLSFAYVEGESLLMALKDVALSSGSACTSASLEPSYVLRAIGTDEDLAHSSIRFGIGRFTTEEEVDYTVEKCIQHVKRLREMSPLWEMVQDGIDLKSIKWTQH
T1 sequence (Q9HD34 whole entry, chain 2 of 2): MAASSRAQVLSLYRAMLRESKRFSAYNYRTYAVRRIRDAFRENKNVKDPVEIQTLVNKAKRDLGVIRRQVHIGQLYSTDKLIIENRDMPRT

Kd [1]: 87.8 ± 7 nM | Kd [2]: 160 ± 26 nM
B1: biotinylated human ISCU (Δ1-34), wild type (natural protein, UniProt Q9H1K1 35-167, looked up)
chain: YHKKVVDHYENPRNVGSLDKTSKNVGTGLVGAPACGDVMKLQIQVDEKGKIVDARFKTFGCGSAIASSSLATEWVKGKTVEEALTIKNTDIAKELCLPPVKLHCSMLAEDAIKAALADYKLKQEPKKGEAEKK
modifications: biotin (site not stated)
